Positions count from the first letter of the chain named. In names and notes the source's numbering stands.
B1: N405Q (protein)
chain: GFGDVGALESLRGNADLAYILSMEPCGHCLIINNVNFCRESGLRTRTGSNIDCEKLRRRFSSLHFMVEVKGDLTAKKMVLALLELARQDHGALDCCVVVILSHGCQASHLQFPGAVYGTDGCPVSVEKIVNIFNGTSCPSLGGKPKLFFIQACGGEQKDHGFEVASTSPEDESPGSNPEPDATPFQEGLRTFDQLDAISSLPTPSDIFVSYSTFPGFVSWRDPKSGSWYVETLDDIFEQWAHSEDLQSLLLRVANAVSVKGIYKQMPGCFQFLRKKLFFKTSASRA
B2: N405Q-S144A (protein)
chain: B1 chain with S10A
B3: S196A (protein)
chain: B1 chain with S62A, Q271N
B4: N405Q-S196D (protein)
chain: B1 chain with S62D
B5: F406A (protein)
chain: B1 chain with Q271N, F272A
B6: F404Y (protein)
chain: B1 chain with F270Y, Q271N
B7: D330A-S144A (protein)
chain: B1 chain with S10A, D196A, Q271N
B8: F406W (protein)
chain: B1 chain with Q271N, F272W
B9: D330A-N405Q (protein)
chain: B1 chain with D196A
B10: D330N (protein)
chain: B1 chain with D196N, Q271N
B11: T317A (protein)
chain: B1 chain with T183A, Q271N
B12: S195A (protein)
chain: B1 chain with S61A, Q271N
B13: D330A-S144D (protein)
chain: B1 chain with S10D, D196A, Q271N
B14: N405Q-T317S (protein)
chain: B1 chain with T183S
B15: D330V (protein)
chain: B1 chain with D196V, Q271N
B16: D330A-S196A (protein)
chain: B1 chain with S62A, D196A, Q271N
B17: D330A-S183A (protein)
chain: B1 chain with S49A, D196A, Q271N
B18: N405Q-S144D (protein)
chain: B1 chain with S10D
B19: D330G (protein)
chain: B1 chain with D196G, Q271N
B20: D330S (protein)
chain: B1 chain with D196S, Q271N
B21: F406Y (protein)
chain: B1 chain with Q271N, F272Y
B22: S183A (protein)
chain: B1 chain with S49A, Q271N
B23: L329E (protein)
chain: B1 chain with L195E, Q271N
B24: N405Q-S144Aco (protein, UniProt P55211 1-416, looked up, variant N405Q S144A)
chain: MDEADRRLLRRCRLRLVEELQVDQLWDALLSRELFRPHMIEDIQRAGSGSRRDQARQLIIDLETRGSQALPLFISCLEDTGQDMLASFLRTNRQAAKLSKPTLENLTPVVLRPEIRKPEVLRPETPRPVDIGSGGFGDVGALEALRGNADLAYILSMEPCGHCLIINNVNFCRESGLRTRTGSNIDCEKLRRRFSSLHFMVEVKGDLTAKKMVLALLELAQQDHGALDCCVVVILSHGCQASHLQFPGAVYGTDGCPVSVEKIVNIFNGTSCPSLGGKPKLFFIQACGGEQKDHGFEVASTSPEDESPGSNPEPDATPFQEGLRTFDQLDAISSLPTPSDIFVSYSTFPGFVSWRDPKSGSWYVETLDDIFEQWAHSEDLQSLLLRVANAVSVKGIYKQMPGCFQFLRKKLFFKTS
modifications: codon-optimized; in iC9 construct
B25: N405Q-T317Sco (protein, UniProt P55211 1-416, looked up, variant N405Q T317S)
chain: B24 chain with A144S, T317S
modifications: codon-optimized; in iC9 construct
B26: N405Qco (protein, UniProt P55211 1-416, looked up, variant N405Q)
chain: B24 chain with A144S
modifications: codon-optimized; in iC9 construct

Tested on: chimeric Caspase-9 polypeptide
Sequence (P62942 2-108 F37V limits assumed): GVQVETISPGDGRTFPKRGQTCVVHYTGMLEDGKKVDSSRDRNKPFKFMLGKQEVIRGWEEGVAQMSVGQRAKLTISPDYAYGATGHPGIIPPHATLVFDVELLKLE
Assay: Caspase-9 mutant classes and basal activity (Table 5)
Type: cell-based
Conditions: Caspase-9 mutant class; for IC50: ligand IC50 compared with unmodified chimeric Caspase-9
Source text: Even though homo-dimerization of wild-type initiator Caspase-9 is energetically unfavorable, making them mostly monomers in solution [14-16], the low-level inherent basal activity of unprocessed Caspase-9 [15, 17] is enhanced in the presence of the Apaf-1-based “apoptosome”, its natural allosteric regulator [6]. Moreover, supra-physiological expression levels and/or co-localization could lead to proximity-driven dimerization, further enhancing basal activation. The modified cells of the present application may comprise nucleic acids coding for a chimeric Caspase-9 polypeptide having lower basal signaling activity. Polynucleotides comprising Caspase-9 mutants with lower basal signaling may be expressed in the modified cells used for cell therapy herein. In these examples, the modified cells may include a safety switch, comprising a polynucleotide encoding a lower basal signaling chimeric Caspase-9 polypeptide. In the event of an adverse event following administration of the modified cells comprising the chimeric signaling polypeptides or chimeric antigen receptors herein, Caspase-9 activity may be induced by administering the dimerizer to the patient, thus inducing apoptosis and clearance of some, or all of the modified cells. In some examples, the amount of dimerizer administered may be determined as an amount designed to remove the highest amount, at least 80% or 90% of the modified cells. In other examples, the amount of dimerizer administered may be determined as an amount designed to remove only a portion of the modified cells, in order to alleviate negative symptoms or conditions, while leaving a sufficient amount of therapeutic modified cells in the patient, in order to continue therapy. Methods for using chimeric Caspase-9 polypeptides to induce apoptosis are discussed in PCT Application Number PCT/US2011/037381 by Malcolm K. Brenner et al., titled Methods for Inducing Selective Apoptosis, filed May 20, 2011, and in U.S. patent application Ser. No. 13/112,739 by Malcolm K. Brenner et al., titled Methods for Inducing Selective Apoptosis, filed May 20, 2011, issued Jul. 28, 2015 as U.S. Pat. No. 9,089,520. Chimeric caspase polypeptides having modified basal activity are discussed in PCT Application Serial Number PCT/US2014/022004 by David Spencer et al., titled Modified Caspase Polypeptides and Uses Thereof, filed Mar. 7, 2014, published Oct. 9, 2014 as WO2014/164348, and in U.S. patent application Ser. No. 13/792,135 by David Spencer et al., titled Modified Caspase Polypeptides and Uses Thereof, filed Mar. 7, 2014; and in U.S. patent application Ser. No. 14/640,553 by Spencer et al., filed Mar. 6, 2015. Methods for inducing partial apoptosis of the therapeutic modified cells are discussed in PCT Application Number PCT/US14/040964 by Kevin Slawin et al., titled Methods for Inducing Partial Apoptosis Using Caspase Polypeptides, filed Jun. 4, 2014, published Dec. 11, 2014 as WO2014/197638, and in U.S. patent application Ser. No. 14/296,404 by Kevin Slawin et al., titled Methods for Inducing Partial Apoptosis Using Caspase Polypeptides, filed Jun. 4, 2014. These patent applications and publications are all incorporated by reference herein in their entireties.

[1] = basal (ligand-independent) signaling compared with unmodified chimeric Caspase-9

Molecule | Basal Activity [1] | IC50 | Basal Activity (mutants marked * = predicted)
B1 | Decreased | higher IC50 | 
B2 | Decreased | higher IC50 | 
B3 | Decreased | higher IC50 | 
B4 | Decreased | higher IC50 | 
B5 | Decreased | higher IC50 | 
B6 | Decreased | higher IC50 | 
B7 | Decreased | higher IC50 | 
B8 | Decreased | higher IC50 | 
B9 | Decreased | higher IC50 | 
B10 | Decreased | higher IC50 | 
B11 | Decreased | higher IC50 | 
B12 | Decreased | higher IC50 | 
B13 | Decreased | higher IC50 | 
B14 | Decreased | higher IC50 | 
B15 | Decreased | higher IC50 | 
B16 | Decreased | higher IC50 | 
B17 | Decreased | higher IC50 | 
B18 | Decreased | higher IC50 | 
B19 | Decreased | higher IC50 | 
B20 | Decreased | higher IC50 | 
B21 | Decreased | higher IC50 | 
B22 | Decreased | higher IC50 | 
B23 | Decreased | higher IC50 | 
B24 |  |  | Decreased
B25 |  |  | Decreased
B26 | Decreased | higher IC50 | 

From patent publication US20210147507A1, “METHODS TO AUGMENT OR ALTER SIGNAL TRANSDUCTION” (Bellicum Pharmaceuticals, Inc., priority 2017, published 2021)
